IntAct's records for PubMed 36931259

B1: 14-3-3 protein sigma (Homo sapiens), P31947 (parent)
chain: MERASLIQKAKLAEQAERYEDMAAFMKGAVEKGEELSCEERNLLSVAYKNVVGGQRAAWRVLSSIEQKSNEEGSEEKGPEVREYREKVETELQGVCDTVLGLLDSHLIKEAGDAESRVFYLKMKGDYYRYLAEVATGDDKKRIIDSARSAYQEAMDISKKEMPPTNPIRLGLALNFSVFHYEIANSPEEAISLAKTTFDEAMADLHTLSEDSYKDSTLIMQLLRDNLTLWTADNAGEEGGEAPQEPQS

Variants of: B1
Settings: with MAP3K14, Q99558

Variant	effect of a mutation on the interaction
K49E;R56E;V178D	decreasing interaction strength

Variants of: B1
Settings: with limk2_human LIMK2, P53671

Variant	effect of a mutation on the interaction
K49E;R56E;V178D	decreasing interaction strength

Variants of: B1
Settings: with m3k9_human MAP3K9, P80192
Sequence of m3k9_human MAP3K9, P80192 (P80192 whole entry, looked up): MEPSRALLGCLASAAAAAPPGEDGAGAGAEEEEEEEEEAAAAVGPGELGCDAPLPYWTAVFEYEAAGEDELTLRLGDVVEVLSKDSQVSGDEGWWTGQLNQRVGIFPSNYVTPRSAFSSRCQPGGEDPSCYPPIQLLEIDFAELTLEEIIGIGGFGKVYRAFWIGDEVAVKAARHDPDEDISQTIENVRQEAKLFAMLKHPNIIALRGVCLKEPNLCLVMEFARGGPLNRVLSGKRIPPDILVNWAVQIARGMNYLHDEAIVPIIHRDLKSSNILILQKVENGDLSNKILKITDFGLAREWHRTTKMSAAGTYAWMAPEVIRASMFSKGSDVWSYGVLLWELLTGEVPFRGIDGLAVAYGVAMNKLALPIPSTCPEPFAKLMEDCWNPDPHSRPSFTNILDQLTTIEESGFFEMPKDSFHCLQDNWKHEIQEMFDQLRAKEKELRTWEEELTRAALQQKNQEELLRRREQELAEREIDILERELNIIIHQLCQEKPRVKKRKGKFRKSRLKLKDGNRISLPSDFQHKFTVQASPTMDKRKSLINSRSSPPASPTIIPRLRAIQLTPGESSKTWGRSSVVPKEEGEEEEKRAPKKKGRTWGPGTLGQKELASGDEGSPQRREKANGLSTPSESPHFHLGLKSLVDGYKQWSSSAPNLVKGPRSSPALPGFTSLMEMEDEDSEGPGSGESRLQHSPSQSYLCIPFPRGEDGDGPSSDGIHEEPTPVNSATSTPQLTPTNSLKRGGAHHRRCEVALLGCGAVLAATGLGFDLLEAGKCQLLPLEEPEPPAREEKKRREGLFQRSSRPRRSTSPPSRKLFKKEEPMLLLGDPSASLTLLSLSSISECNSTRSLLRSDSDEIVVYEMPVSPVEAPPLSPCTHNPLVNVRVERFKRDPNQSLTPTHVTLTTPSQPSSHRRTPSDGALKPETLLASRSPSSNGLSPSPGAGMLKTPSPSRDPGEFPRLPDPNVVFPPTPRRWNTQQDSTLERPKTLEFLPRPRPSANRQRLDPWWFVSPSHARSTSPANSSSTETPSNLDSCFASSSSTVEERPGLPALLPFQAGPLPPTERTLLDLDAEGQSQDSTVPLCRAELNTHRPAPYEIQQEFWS

Variant	effect of a mutation on the interaction
K49E;R56E;V178D	decreasing interaction strength

Variants of: B1
Settings: with tesk2_human TESK2, Q96S53

Variant	effect of a mutation on the interaction
K49E;R56E;V178D	decreasing interaction strength

Variants of: B1
Settings: with mk04_human MAPK4, P31152

Variant	effect of a mutation on the interaction
K49E;R56E;V178D	decreasing interaction strength

Variants of: B1
Settings: with wnk1_human WNK1, Q9H4A3

Variant	effect of a mutation on the interaction
K49E;R56E;V178D	decreasing interaction strength

Variants of: B1
Settings: with abl1_human ABL1, P00519

Variant	effect of a mutation on the interaction
K49E;R56E;V178D	decreasing interaction strength

Variants of: B1
Settings: with mast2_human MAST2, Q6P0Q8

Variant	effect of a mutation on the interaction
K49E;R56E;V178D	decreasing interaction strength

Variants of: B1
Settings: with dyr1b_human DYRK1B

Variant	effect of a mutation on the interaction
K49E;R56E;V178D	decreasing interaction strength

Variants of: B1
Settings: with wnk4_human WNK4, Q96J92

Variant	effect of a mutation on the interaction
K49E;R56E;V178D	decreasing interaction strength

Variants of: B1
Settings: with clk3_human CLK3, P49761

Variant	effect of a mutation on the interaction
K49E;R56E;V178D	decreasing interaction strength

Variants of: B1
Settings: with cdk18_human CDK18, Q07002

Variant	effect of a mutation on the interaction
K49E;R56E;V178D	decreasing interaction strength

Variants of: B1
Settings: with lck_human LCK

Variant	effect of a mutation on the interaction
K49E;R56E;V178D	decreasing interaction strength

Variants of: B1
Settings: with ntrk3_human NTRK3, Q16288

Variant	effect of a mutation on the interaction
K49E;R56E;V178D	decreasing interaction strength

Variants of: B1
Settings: with mp2k7_human MAP2K7, O14733
Sequence of mp2k7_human MAP2K7, O14733 (O14733 whole entry): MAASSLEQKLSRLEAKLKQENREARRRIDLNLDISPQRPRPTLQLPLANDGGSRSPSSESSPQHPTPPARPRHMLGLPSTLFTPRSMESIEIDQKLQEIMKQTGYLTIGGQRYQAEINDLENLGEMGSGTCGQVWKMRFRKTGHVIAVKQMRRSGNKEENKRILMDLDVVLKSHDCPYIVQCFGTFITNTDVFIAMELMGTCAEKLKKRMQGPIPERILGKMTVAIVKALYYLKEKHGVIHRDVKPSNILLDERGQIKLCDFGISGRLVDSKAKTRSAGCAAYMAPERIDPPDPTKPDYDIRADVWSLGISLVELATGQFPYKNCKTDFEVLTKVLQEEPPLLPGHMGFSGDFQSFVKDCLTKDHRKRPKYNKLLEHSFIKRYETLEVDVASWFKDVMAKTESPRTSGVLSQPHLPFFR

Variant	effect of a mutation on the interaction
K49E;R56E;V178D	decreasing interaction strength

Variants of: B1
Settings: with kkcc1_human CAMKK1, Q8N5S9
Sequence of kkcc1_human CAMKK1, Q8N5S9 (Q8N5S9 whole entry, looked up): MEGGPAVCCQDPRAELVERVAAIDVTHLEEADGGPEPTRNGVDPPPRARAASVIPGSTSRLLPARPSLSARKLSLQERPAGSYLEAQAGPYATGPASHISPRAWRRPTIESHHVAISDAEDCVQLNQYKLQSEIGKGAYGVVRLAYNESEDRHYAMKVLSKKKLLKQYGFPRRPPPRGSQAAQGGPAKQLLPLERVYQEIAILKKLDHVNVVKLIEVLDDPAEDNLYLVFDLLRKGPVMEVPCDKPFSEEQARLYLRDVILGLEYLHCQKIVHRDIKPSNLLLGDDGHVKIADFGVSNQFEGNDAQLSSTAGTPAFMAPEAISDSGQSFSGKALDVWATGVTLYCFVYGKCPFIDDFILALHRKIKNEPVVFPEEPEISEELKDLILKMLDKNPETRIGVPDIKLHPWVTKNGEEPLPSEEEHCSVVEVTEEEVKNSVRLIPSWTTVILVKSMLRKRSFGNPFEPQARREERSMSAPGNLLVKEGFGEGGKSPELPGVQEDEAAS

Variant	effect of a mutation on the interaction
K49E;R56E;V178D	decreasing interaction strength

Variants of: B1
Settings: with tesk1_human TESK1, Q15569

Variant	effect of a mutation on the interaction
K49E;R56E;V178D	decreasing interaction strength

Variants of: B1
Settings: with ilk_human ILK

Variant	effect of a mutation on the interaction
K49E;R56E;V178D	decreasing interaction strength

Variants of: B1
Settings: with srpk3_human SRPK3, Q9UPE1

Variant	effect of a mutation on the interaction
K49E;R56E;V178D	decreasing interaction strength

Variants of: B1
Settings: with btk_human BTK

Variant	effect of a mutation on the interaction
K49E;R56E;V178D	decreasing interaction strength

Variants of: B1
Settings: with kpce_human PRKCE

Variant	effect of a mutation on the interaction
K49E;R56E;V178D	decreasing interaction strength

Variants of: B1
Settings: with plk2_human PLK2, Q9NYY3

Variant	effect of a mutation on the interaction
K49E;R56E;V178D	decreasing interaction strength

Variants of: B1
Settings: with st32c_human STK32C

Variant	effect of a mutation on the interaction
K49E;R56E;V178D	decreasing interaction strength

Variants of: B1
Settings: with mylk2_human MYLK2, Q9H1R3

Variant	effect of a mutation on the interaction
K49E;R56E;V178D	decreasing interaction strength

Variants of: B1
Settings: with ripk2_human RIPK2, O43353

Variant	effect of a mutation on the interaction
K49E;R56E;V178D	decreasing interaction strength

Variants of: B1
Settings: with m4k4_human MAP4K4, O95819
Sequence of m4k4_human MAP4K4, O95819 (O95819 whole entry, looked up): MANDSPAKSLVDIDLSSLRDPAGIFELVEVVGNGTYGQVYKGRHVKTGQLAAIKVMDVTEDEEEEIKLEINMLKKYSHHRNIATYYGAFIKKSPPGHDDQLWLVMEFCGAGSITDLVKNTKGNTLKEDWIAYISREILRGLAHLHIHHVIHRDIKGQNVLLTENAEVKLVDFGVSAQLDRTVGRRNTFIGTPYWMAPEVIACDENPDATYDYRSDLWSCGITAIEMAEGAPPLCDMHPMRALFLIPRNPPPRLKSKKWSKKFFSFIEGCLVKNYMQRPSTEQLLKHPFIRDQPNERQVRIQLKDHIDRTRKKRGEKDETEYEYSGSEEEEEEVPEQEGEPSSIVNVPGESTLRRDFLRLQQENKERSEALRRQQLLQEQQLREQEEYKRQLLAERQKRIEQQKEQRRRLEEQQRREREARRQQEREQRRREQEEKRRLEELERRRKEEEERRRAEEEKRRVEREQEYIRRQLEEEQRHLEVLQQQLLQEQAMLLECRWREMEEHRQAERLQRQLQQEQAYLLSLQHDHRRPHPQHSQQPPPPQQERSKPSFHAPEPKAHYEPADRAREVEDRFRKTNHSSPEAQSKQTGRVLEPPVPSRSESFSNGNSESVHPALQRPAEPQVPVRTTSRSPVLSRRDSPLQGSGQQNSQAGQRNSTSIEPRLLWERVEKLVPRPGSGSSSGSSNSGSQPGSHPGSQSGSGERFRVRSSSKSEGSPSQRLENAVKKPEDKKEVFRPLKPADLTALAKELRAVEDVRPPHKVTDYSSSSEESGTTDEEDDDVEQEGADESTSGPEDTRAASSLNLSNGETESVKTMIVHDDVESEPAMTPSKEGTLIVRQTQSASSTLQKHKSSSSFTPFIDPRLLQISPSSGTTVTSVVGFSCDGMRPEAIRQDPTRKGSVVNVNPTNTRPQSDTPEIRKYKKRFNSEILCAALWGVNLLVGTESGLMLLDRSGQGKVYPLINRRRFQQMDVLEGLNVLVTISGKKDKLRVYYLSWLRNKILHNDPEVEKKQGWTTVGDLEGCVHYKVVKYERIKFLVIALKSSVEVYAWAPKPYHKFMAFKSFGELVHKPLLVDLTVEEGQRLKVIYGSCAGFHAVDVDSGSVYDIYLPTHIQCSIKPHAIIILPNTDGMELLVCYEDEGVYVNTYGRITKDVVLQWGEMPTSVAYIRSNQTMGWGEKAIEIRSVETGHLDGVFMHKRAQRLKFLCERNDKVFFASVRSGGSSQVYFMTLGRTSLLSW

Variant	effect of a mutation on the interaction
K49E;R56E;V178D	decreasing interaction strength

Variants of: B1
Settings: with kc1d_human CSNK1D

Variant	effect of a mutation on the interaction
K49E;R56E;V178D	decreasing interaction strength

Variants of: B1
Settings: with ks6a2_human RPS6KA2, Q15349

Variant	effect of a mutation on the interaction
K49E;R56E;V178D	decreasing interaction strength

Variants of: B1
Settings: with alpk1_human ALPK1, Q96QP1

Variant	effect of a mutation on the interaction
K49E;R56E;V178D	decreasing interaction strength

Variants of: B1
Settings: with kc1e_human CSNK1E

Variant	effect of a mutation on the interaction
K49E;R56E;V178D	decreasing interaction strength

Variants of: B1
Settings: with kpcg_human PRKCG

Variant	effect of a mutation on the interaction
K49E;R56E;V178D	decreasing interaction strength

Variants of: B1
Settings: with fak2_human PTK2B

Variant	effect of a mutation on the interaction
K49E;R56E;V178D	decreasing interaction strength

Variants of: B1
Settings: with cdk3_human CDK3, Q00526

Variant	effect of a mutation on the interaction
K49E;R56E;V178D	decreasing interaction strength

Variants of: B1
Settings: with limk1_human LIMK1, P53667

Variant	effect of a mutation on the interaction
K49E;R56E;V178D	decreasing interaction strength

Variants of: B1
Settings: with pak6_human PAK6, Q9NQU5
Sequence of pak6_human PAK6, Q9NQU5 (Q9NQU5 whole entry, looked up): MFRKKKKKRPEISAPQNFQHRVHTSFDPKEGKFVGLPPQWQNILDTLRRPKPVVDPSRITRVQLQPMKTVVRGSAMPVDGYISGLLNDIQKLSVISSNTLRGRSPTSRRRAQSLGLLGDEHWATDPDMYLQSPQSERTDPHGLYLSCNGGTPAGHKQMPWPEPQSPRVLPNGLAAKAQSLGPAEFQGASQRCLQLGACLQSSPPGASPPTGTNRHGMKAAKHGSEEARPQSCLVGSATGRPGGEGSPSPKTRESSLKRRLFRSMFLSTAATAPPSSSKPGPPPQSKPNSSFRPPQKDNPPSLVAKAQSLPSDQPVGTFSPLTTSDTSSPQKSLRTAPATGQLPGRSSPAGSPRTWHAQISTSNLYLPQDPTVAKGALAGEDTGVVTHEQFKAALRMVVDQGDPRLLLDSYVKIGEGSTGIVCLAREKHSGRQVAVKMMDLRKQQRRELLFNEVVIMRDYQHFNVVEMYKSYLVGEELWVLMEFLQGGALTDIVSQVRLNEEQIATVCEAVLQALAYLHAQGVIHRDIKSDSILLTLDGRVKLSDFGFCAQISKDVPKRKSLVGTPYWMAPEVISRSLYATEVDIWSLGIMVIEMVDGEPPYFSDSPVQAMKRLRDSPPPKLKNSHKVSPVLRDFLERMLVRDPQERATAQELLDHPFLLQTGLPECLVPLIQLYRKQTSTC

Variant	effect of a mutation on the interaction
K49E;R56E;V178D	decreasing interaction strength

Variants of: B1
Settings: with igf1r_human IGF1R

Variant	effect of a mutation on the interaction
K49E;R56E;V178D	decreasing interaction strength

Variants of: B1
Settings: with aapk2_human PRKAA2, P54646

Variant	effect of a mutation on the interaction
K49E;R56E;V178D	decreasing interaction strength

Variants of: B1
Settings: with pak4_human PAK4, O96013

Variant	effect of a mutation on the interaction
K49E;R56E;V178D	decreasing interaction strength

Variants of: B1
Settings: with pgfra_human PDGFRA

Variant	effect of a mutation on the interaction
K49E;R56E;V178D	decreasing interaction strength

Variants of: B1
Settings: with cdk17_human CDK17, Q00537
Sequence of cdk17_human CDK17, Q00537 (Q00537 whole entry, looked up): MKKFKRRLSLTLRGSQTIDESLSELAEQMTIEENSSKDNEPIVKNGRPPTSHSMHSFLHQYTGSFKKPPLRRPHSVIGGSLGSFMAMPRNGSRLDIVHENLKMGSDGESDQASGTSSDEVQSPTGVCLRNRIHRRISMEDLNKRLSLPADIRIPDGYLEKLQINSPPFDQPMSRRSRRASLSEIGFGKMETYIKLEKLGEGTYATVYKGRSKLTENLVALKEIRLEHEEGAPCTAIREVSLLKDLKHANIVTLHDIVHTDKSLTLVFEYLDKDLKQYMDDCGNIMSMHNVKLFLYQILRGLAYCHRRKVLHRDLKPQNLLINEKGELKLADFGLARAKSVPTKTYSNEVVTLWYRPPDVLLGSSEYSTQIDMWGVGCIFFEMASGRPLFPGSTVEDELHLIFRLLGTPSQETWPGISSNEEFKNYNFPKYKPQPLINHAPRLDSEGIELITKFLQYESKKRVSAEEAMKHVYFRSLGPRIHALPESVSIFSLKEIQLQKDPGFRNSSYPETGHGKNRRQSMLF

Variant	effect of a mutation on the interaction
K49E;R56E;V178D	decreasing interaction strength

Variants of: B1
Settings: with mink1_human MINK1, Q8N4C8

Variant	effect of a mutation on the interaction
K49E;R56E;V178D	decreasing interaction strength

Variants of: B1
Settings: with kcc2d_human CAMK2D

Variant	effect of a mutation on the interaction
K49E;R56E;V178D	decreasing interaction strength

Variants of: B1
Settings: with kcc2a_human CAMK2A

Variant	effect of a mutation on the interaction
K49E;R56E;V178D	decreasing interaction strength

Variants of: B1
Settings: with dapk2_human DAPK2, Q9UIK4
Sequence of dapk2_human DAPK2, Q9UIK4 (Q9UIK4 whole entry, looked up): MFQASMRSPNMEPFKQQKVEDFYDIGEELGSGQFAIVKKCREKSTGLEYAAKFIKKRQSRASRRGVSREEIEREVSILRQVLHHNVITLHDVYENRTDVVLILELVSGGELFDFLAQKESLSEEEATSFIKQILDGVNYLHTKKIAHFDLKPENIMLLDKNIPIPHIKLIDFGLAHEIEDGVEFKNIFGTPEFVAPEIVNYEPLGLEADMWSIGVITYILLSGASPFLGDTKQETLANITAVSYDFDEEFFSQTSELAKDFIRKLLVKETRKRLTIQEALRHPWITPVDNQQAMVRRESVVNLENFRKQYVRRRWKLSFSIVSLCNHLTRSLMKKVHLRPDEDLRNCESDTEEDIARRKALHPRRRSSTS

Variant	effect of a mutation on the interaction
K49E;R56E;V178D	decreasing interaction strength

Variants of: B1
Settings: with m4k1_human MAP4K1, Q92918

Variant	effect of a mutation on the interaction
K49E;R56E;V178D	decreasing interaction strength

Variants of: B1
Settings: with erbb4_human ERBB4, Q15303

Variant	effect of a mutation on the interaction
K49E;R56E;V178D	decreasing interaction strength

Variants of: B1
Settings: with bub1b_human BUB1B

Variant	effect of a mutation on the interaction
K49E;R56E;V178D	decreasing interaction strength
